Legend:
Conditions in all cases: both partners purified
[1] = target: T1, Recombinant purified α-isoform of mammalian PP1 (residues 1–330), tag cleaved (mammalian, UniProt P62136 1-330); experiment: ITC; CRI (140 µM) titrated into PP1 (18 µM), iTC200, 25 °C; 20 mM Tris-HCl pH 7.5, 200 mM NaCl, 1 mM MnCl2, 5 mM β-mercaptoethanol, 10% glycerol
T1 construct: Protein phosphatase 1 catalytic subunit, α-isoform, 'mammalian', residues 1–330; synthetic gene (GenScript); Printed mass 37.5 kDa; Subcloned into pMAL-c2G under the Ptac promoter; also called PP1α; source: E. coli BL21 AI (RIL), purified (TALON, TEV cleavage, heparin Sepharose); not shown: His6, N-terminal, cleaved

[2] = target: T1, Recombinant purified α-isoform of …; experiment: SEC; analytical gel filtration on Superdex 75 in 20 mM Tris-HCl pH 7.5, 200 mM NaCl, 2 mM DTT, 1 mM MnCl2; PP1/CRI at molar ratios 1:1, 1:3 and 2:1
[3] = target: T1, Recombinant purified α-isoform of …; experiment: SPR; Biacore 3000; PP1 covalently coupled to a CM5 chip; Rif1 CRI, mutants and peptide injected at 20 µl/min in 10 mM Tris-HCl pH 7.5, 250 mM NaCl, 1 mM DTT, 2 mM MnCl2, 0.005% Tween 20; 1:1 binding model

T1 sequence (P62136 whole entry, the tested form may be a part, canonical isoform): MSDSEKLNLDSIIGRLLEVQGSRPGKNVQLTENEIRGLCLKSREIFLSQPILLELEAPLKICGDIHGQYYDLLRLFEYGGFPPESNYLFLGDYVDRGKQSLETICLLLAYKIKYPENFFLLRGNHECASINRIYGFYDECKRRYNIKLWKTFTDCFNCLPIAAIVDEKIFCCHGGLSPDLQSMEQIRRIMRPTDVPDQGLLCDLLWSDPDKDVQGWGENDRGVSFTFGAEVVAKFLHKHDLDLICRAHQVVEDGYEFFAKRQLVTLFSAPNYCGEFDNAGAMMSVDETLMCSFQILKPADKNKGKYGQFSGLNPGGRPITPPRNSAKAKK

Kd [1]: 22.8 ± 4.2 nM
dH [1]: -23.8 ± 0.129 kcal/mol
stoichiometry N [2]: 1
Kd [3]: 9.7 ± 1.7 nM
B1: Rif1 CRI (residues 2093–2190), purified, wild type (domain or fragment, mouse, UniProt Q6PR54 2093-2190, looked up)
chain: TSPEKLELDSFGSVNESPSGMQQARCVWSPLASPSTSILKRGLKRSQEDEISPVNKIRRVSFADPIYQAGLADDIDRRCSVVRSHSSNSSPIIKSVKT
notes: Rif1, mouse, CRI, residues 2093–2190; For NMR the same fragment was 15N or 15N/13C labelled; Printed mass 10.8 kDa; also called CR1; 15N-labeled CRI; source: recombinant, purified (TALON beads, tag cleaved by TEV protease)

From article PMC5437018, “Mouse Rif1 is a regulatory subunit of protein phosphatase 1 (PP1)” (Scientific Reports, 2017)
